For test [1], the target named is rat ASIC1a/2a heteromeric channel stably expressed in CHO cells (rat) (UniProt P55926).
The target is the same in test [2]. The source holds these as a separate data set.
The target is the same in test [3]. The source holds these as a separate data set.

A value given as a limit tells only on which side of the number the result lay.

Chain of UniProt P55926 (P55926 whole entry, chain 1 of 2): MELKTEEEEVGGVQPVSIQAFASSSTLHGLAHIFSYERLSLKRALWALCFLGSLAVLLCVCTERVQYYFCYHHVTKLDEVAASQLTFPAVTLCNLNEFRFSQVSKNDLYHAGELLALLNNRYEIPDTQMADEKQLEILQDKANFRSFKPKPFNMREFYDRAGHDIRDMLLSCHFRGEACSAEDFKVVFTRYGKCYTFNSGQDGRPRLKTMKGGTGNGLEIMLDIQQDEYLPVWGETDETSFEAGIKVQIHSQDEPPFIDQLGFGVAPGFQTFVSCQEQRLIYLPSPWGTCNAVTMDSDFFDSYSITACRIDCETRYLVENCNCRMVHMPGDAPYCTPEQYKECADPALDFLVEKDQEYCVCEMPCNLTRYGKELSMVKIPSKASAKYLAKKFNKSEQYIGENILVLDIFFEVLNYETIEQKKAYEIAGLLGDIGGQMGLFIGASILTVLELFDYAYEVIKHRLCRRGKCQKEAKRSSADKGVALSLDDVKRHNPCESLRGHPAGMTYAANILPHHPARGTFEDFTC
Chain of UniProt P55926 (P55926 other isoform, or with tags, fused parts or gaps, chain 2 of 2): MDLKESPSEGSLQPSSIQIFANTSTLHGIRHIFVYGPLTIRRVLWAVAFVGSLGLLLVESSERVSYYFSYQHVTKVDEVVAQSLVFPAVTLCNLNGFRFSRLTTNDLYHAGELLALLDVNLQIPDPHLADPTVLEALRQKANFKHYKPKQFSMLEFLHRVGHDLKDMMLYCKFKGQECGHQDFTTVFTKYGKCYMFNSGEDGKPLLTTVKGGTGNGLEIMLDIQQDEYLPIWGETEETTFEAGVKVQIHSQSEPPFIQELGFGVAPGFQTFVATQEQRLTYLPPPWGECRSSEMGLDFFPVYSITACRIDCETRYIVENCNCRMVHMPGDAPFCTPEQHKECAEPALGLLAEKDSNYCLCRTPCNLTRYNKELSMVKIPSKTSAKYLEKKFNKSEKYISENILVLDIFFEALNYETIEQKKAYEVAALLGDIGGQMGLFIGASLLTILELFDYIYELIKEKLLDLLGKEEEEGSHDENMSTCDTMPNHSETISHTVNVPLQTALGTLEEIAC

Consider “Psalmotoxin (PcTx1) (from UniProt P60514 1-40) (peptide)”, for which the threshold concentration of PcTx1 for potentiation of pH6.8-induced responses at conditioning pH 7.4 (wash-off experiments; CHO cells, rat and mouse cortical neurons) in test [1] is less than 0.01 µM. In test [2], the whole-cell patch clamp on CHO cells: inhibition of pH6.0-induced current at conditioning pH 7.0, 1-300 nM PcTx1 (inhibition incomplete, plateau ~75%) stood at 0.0029 µM. In test [3], the current clamp on CHO cells: potentiation of pH6.8-induced membrane depolarization at conditioning pH 7.4, 1-300 nM PcTx1 was found to be 0.0561 µM and the whole-cell patch clamp on CHO cells: potentiation of pH6.8-induced current at conditioning pH 7.4, 1-300 nM PcTx1 was determined as 0.124 µM.

These data come from PMC5940917.
